Consider one substance from publication PMC2662490.

This assay concerns the target FXR1P Nt-KH2–His6 (human). As to the kind of experiment: SAXS.

On to FXR1P Nt-KH2–His6 (domain or fragment), for which the stoichiometry N (in general, a count of units in the complex or per binding partner) was determined as 2.
